Results taken from article PMC2705707 (Journal of Structural and Functional Genomics, 2009).

B1: YgaP (natural protein, E. coli, UniProt P55734 1-174, looked up)
chain: MALTTISPHDAQELIARGAKLIDIRDADEYLREHIPEADLAPLSVLEQSGLPAKLRHEQIIFHCQAGKRTSNNADKLAAIAAPAEIFLLEDGIDGWKKAGLPVAVNKSQPLPLMRQVQIAAGGLILIGVVLGYTVNSGFFLLSGFVGAGLLFAGISGFCGMARLLDKMPWNQRA
B2: YidH (natural protein, E. coli, UniProt P0ADM0 1-115, looked up)
chain: MKISRLGEAPDYRFSLANERTFLAWIRTALGFLAAGVGLDQLAPDFATPVIRELLALLLCLFSGGLAMYGYLRWLRNEKAMRLKEDLPYTNSLLIISLILMVVAVIVMGLVLYAG

Target: the molecule itself
Assay: SEC + other: SDS-PAGE

| Protein | stoichiometry N |
| --- | --- |
| B1 | 2 |
| B2 | 2 |
